B1: bovine iCP subunit α2 (natural protein, UniProt Q3T0Y5 1-234, looked up)
chain: MAERGYSFSLTTFSPSGKLVQIEYALAAVAGGAPSVGIKAANGVVLATEKKQKSILYDERSVHKVEPITKHIGLVYSGMGPDYRVLVHRARKLAQQYYLVYQEPIPTAQLVQRVASVMQEYTQSGGVRPFGVSLLICGWNEGRPYLFQSDPSGAYFAWKATAMGKNYVNGKTFLEKRYNEDLELEDAIHTAILTLKESFEGQMTEDNIEVGICNEAGFRRLTPTEVKDYLAAIA
notes: 20S proteasome subunit α2, bovine; Stood in the experiments as a subunit of m2; source: purified from bovine spleen as a subunit of the iCP
B2: human PA28α (natural protein)
chain: MAMLRVQPEAQAKVDVFREDLCTKTENLLGSYFPKKISELDAFLKEPALNEANLSNLKAPLDIPVPDPVKEKEKEERKKQQEKEDKDEKKKGEDEDKGPPCGPVNCNEKIVVLLQRLKPEIKDVIEQLNLVTTWLQLQIPRIEDGNNFGVAVQEKVFELMTSLHTKLEGFHTQISKYFSERGDAVTKAAKQPHVGDYRQLVHELDEAEYRDIRLMVMEIRNAYAVLYDIILKNFEKLKKPRGETKGMIY
notes: C-terminal residue printed as Y249; Stood in the experiments as a subunit of m1; also called PA28 α1, α2, α3, α4 (its copies in the heptamer); source: E. coli BL21 (DE3), co-expressed with PA28β, purified as the PA28αβ heteroheptamer
B3: bovine iCP subunit α5 (natural protein, UniProt Q5E987 1-241, looked up)
chain: MFLTRSEYDRGVNTFSPEGRLFQVEYAIEAIKLGSTAIGIQTSEGVCLAVEKRITSPLMEPSSIEKIVEIDAHIGCAMSGLIADAKTLIDKARVETQNHWFTYNETMTVESVTQAVSNLALQFGEEDADPGAMSRPFGVALLFGGVDEKGPQLFHMDPSGTFVQCDARAIGSASEGAQSSLQEVYHKSMTLKEAIKSSLIILKQVMEEKLNATNIELATVQPGQNFHMFTKEELEEVIKDI
notes: 20S proteasome subunit α5, bovine; Stood in the experiments as a subunit of m2; source: purified from bovine spleen as a subunit of the iCP
B4: bovine iCP subunit α4 (natural protein)
chain: not shown
notes: 20S proteasome subunit α4, bovine; Stood in the experiments as a subunit of m2; source: purified from bovine spleen as a subunit of the iCP
B5: human PA28β (natural protein)
chain: not shown
notes: C-terminal residue printed as Y239; Stood in the experiments as a subunit of m1; also called PA28 β1, β2, β3 (its copies in the heptamer); source: E. coli BL21 (DE3), co-expressed with PA28α, purified as the PA28αβ heteroheptamer

Common to all, as to details: both partners purified
The assay “human PA28β” has as its target B5. Nature of the assay: cryo-EM structure; PA28αβ and iCP mixed at a molar ratio of 10:1, 37 °C 30 min, cross-linked with 0.1% glutaraldehyde at 4 °C for 2 h, glycerol gradient; single-capped (4.1 Å) and double-capped (4.2 Å) complexes and free iCP (3.3 Å) from one data set.
The target of the assay “human PA28α” is B2. The description is as above.
The target of a further assay is T1, bovine iCP subunit α3 (bovine, UniProt Q3ZCK9 1-261).
T1 construct: 20S proteasome subunit α3, bovine; Stood in the experiments as a subunit of m2; source: purified from bovine spleen as a subunit of the iCP
T1 sequence (Q3ZCK9 whole entry): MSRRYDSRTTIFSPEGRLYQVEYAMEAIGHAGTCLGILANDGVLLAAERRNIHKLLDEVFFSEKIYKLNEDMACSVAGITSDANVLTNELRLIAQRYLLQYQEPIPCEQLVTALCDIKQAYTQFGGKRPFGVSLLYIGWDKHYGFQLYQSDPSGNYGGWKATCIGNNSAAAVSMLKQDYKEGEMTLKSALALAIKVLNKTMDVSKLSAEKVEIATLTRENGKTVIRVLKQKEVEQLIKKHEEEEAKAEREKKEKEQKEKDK
The assay is described as above.

For a further assay, the target named is T2, bovine iCP subunit α6 (bovine, UniProt Q3T0X5 1-263).
T2 construct: 20S proteasome subunit α6, bovine; Stood in the experiments as a subunit of m2; source: purified from bovine spleen as a subunit of the iCP
T2 sequence (Q3T0X5 whole entry): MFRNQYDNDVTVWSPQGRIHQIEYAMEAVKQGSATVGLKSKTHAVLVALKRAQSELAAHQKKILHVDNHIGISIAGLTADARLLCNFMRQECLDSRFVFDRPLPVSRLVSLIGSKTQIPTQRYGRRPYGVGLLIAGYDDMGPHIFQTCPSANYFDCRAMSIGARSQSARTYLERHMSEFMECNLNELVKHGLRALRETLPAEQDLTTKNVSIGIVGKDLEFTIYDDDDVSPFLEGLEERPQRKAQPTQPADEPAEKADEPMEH
Nature of the assay: cross-linking; XL-MS: PA28αβ and iCP mixed 10:1, 37 °C 30 min, 0.25 mM BS3 on ice 2 h, glycerol gradient, trypsin digest, pLink2; E-value threshold 1.00E-02.

The assay “bovine iCP subunit α4” concerns the target B4. Nature of the assay: cryo-EM structure; PA28αβ and iCP mixed at a molar ratio of 10:1, 37 °C 30 min, cross-linked with 0.1% glutaraldehyde at 4 °C for 2 h, glycerol gradient; single-capped (4.1 Å) and double-capped (4.2 Å) complexes and free iCP (3.3 Å) from one data set.

bovine iCP subunit α4, sequence (Q3ZBG0 whole entry): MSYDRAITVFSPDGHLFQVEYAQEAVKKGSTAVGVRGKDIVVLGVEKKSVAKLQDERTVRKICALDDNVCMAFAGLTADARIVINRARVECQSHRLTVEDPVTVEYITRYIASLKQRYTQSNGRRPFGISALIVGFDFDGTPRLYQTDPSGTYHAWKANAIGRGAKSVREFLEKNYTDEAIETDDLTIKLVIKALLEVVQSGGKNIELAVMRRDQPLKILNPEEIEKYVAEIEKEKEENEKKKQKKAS

In the case of B1, the binding result with human PA28β and in the assay with human PA28α was “binds” each time.
In the case of B2, in the assay with bovine iCP subunit α3, the binding result is “binds”.
For B3, the binding result with human PA28α is “binds”.
Turning to B4, the binding result in the assay with human PA28α was “binds”.
Turning to B5, the binding result with bovine iCP subunit α6, with bovine iCP subunit α4 and with bovine iCP subunit α3 was “binds” throughout.

For the origin of these results see publication PMC7854634, “Cryo-EM of mammalian PA28αβ-iCP immunoproteasome reveals a distinct mechanism of proteasome activation by PA28αβ” (Nature Communications, 2021).
